These are literature values, as cited in PMC3433420.

Like-named read-outs stand apart in the source and are kept apart here.

Among the targets are ABL1 (Homo sapiens) (UniProt P00519); BLK (Homo sapiens) (UniProt P51451); YES1 (Homo sapiens) (UniProt P07947); LYN (Homo sapiens) (UniProt P07948); SRC (Homo sapiens) (UniProt P12931); PLCG2-NC (Homo sapiens) (UniProt P16885); FGR (Homo sapiens) (UniProt P09769); PIK3R3-C (Homo sapiens) (UniProt Q92569); PIK3R1-C (Homo sapiens) (UniProt P27986); SYK-C (Homo sapiens) (UniProt P43405); SHB (Homo sapiens) (UniProt Q15464); SHC1-PTB (Homo sapiens) (UniProt P29353); SHF (Homo sapiens) (UniProt Q7M4L6).

Details in all cases: cited from earlier work
The target of data set [1] is ITK (Homo sapiens) (UniProt Q08881).
Data set [2] concerns the target PIK3R2-N (Homo sapiens) (UniProt O00459).
In data set [3] the target is PIK3R3-NC (Homo sapiens) (UniProt Q92569).
For data set [4], the target named is PIK3R2-NC (Homo sapiens) (UniProt O00459).
The target of data set [5] is PIK3R3-N (Homo sapiens) (UniProt Q92569).
Data set [6] addresses SYK-NC (Homo sapiens) (UniProt P43405).
Data set [7] shares this target. The source holds these as a separate data set.
For data set [8], the target named is GRB7 (Homo sapiens) (UniProt Q14451).
For data set [9], the target named is ABL2 (Homo sapiens) (UniProt P42684).
Data set [10] deals with RASA1-N (Homo sapiens) (UniProt P20936).
For data set [11], the target named is PIK3R1-N (Homo sapiens) (UniProt P27986).
Data set [12] concerns the target PIK3R3-NC (Homo sapiens) (UniProt Q92569). The source holds these as a separate data set.
Data set [13] concerns the target PIK3R2-NC (Homo sapiens) (UniProt O00459). This is another data set of the same source.
For data set [14], the target named is PIK3R2-N (Homo sapiens) (UniProt O00459). This is another data set of the same source.
The target of data set [15] is TENC1 (Homo sapiens) (UniProt Q63HR2).
For data set [16], the target named is RASA1-N (Homo sapiens) (UniProt P20936). The source holds these as a separate data set.
Data set [17] addresses PIK3R1-NC (Homo sapiens) (UniProt P27986).
In data set [18] the target is PIK3R3-N (Homo sapiens) (UniProt Q92569). This is another data set of the same source.
Data set [19] deals with PIK3R1-NC (Homo sapiens) (UniProt P27986). The source holds these as a separate data set.
The target in data set [20] is TENC1 (Homo sapiens) (UniProt Q63HR2). The source holds these as a separate data set.
The target in data set [21] is PIK3R1-N (Homo sapiens) (UniProt P27986). This is another data set of the same source.
Data set [22] has as its target GRB7 (Homo sapiens) (UniProt Q14451). The source holds these as a separate data set.
Data set [23] addresses PIK3R3-NC (Homo sapiens) (UniProt Q92569). This is another data set of the same source.
For data set [24], the target named is ITK (Homo sapiens) (UniProt Q08881). This is another data set of the same source.
The target in data set [25] is PIK3R2-NC (Homo sapiens) (UniProt O00459). The source holds these as a separate data set.
Data set [26] has as its target ABL2 (Homo sapiens) (UniProt P42684). The source holds these as a separate data set.
Data set [27] has as its target PIK3R1-NC (Homo sapiens) (UniProt P27986). The source holds these as a separate data set.
For data set [28], the target named is PIK3R2-N (Homo sapiens) (UniProt O00459). This is another data set of the same source.
Data set [29] has as its target PIK3R1-N (Homo sapiens) (UniProt P27986). This is another data set of the same source.
Data set [30] has as its target PIK3R1-NC (Homo sapiens) (UniProt P27986). This is another data set of the same source.
Data set [31] has as its target PIK3R2-N (Homo sapiens) (UniProt O00459). This is another data set of the same source.
Data set [32] addresses PIK3R3-N (Homo sapiens) (UniProt Q92569). This is another data set of the same source.
Data set [33] has the same target. The source holds these as a separate data set.
Data set [34] deals with PIK3R3-NC (Homo sapiens) (UniProt Q92569). This is another data set of the same source.
Data set [35] concerns the target ABL2 (Homo sapiens) (UniProt P42684). The source holds these as a separate data set.

ABL2 (Homo sapiens), sequence (P42684 168-268): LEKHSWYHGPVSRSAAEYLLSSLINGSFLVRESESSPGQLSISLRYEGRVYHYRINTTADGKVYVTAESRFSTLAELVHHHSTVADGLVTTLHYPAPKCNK
PIK3R2-N (Homo sapiens), sequence (O00459 325-721): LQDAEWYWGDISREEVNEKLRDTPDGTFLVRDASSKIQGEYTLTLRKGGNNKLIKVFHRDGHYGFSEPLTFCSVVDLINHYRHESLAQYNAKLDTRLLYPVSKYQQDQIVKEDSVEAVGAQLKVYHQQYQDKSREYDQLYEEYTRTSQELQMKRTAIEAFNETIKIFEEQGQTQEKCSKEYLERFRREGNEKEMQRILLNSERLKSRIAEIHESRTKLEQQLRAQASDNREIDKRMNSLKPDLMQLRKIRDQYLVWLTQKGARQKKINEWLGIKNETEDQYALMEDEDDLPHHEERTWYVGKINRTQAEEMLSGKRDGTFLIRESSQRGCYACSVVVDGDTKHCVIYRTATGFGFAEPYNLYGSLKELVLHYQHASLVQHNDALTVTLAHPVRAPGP
PIK3R2-NC (Homo sapiens), sequence (O00459 325-721): as above
PIK3R1-N (Homo sapiens), sequence (P27986 328-723): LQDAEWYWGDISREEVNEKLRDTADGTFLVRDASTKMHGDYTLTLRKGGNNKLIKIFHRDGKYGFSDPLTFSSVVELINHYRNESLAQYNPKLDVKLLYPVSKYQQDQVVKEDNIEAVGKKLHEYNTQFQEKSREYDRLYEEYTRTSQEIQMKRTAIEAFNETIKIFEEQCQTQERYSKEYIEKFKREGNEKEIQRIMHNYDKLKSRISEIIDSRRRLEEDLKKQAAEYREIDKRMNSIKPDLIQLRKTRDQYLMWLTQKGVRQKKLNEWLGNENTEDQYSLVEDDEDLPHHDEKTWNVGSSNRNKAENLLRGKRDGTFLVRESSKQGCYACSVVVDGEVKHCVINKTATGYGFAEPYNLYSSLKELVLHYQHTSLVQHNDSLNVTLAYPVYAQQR
PIK3R1-NC (Homo sapiens), sequence (P27986 328-723): as above
ITK (Homo sapiens), sequence (Q08881 234-343): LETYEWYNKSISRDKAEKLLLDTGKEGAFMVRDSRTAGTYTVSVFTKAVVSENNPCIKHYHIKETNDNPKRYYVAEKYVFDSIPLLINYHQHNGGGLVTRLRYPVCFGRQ
GRB7 (Homo sapiens), sequence (Q14451 426-532): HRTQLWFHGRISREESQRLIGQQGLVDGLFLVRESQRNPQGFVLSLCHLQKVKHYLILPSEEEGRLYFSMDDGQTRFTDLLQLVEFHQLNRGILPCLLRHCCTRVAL
RASA1-N (Homo sapiens), sequence (P20936 176-446): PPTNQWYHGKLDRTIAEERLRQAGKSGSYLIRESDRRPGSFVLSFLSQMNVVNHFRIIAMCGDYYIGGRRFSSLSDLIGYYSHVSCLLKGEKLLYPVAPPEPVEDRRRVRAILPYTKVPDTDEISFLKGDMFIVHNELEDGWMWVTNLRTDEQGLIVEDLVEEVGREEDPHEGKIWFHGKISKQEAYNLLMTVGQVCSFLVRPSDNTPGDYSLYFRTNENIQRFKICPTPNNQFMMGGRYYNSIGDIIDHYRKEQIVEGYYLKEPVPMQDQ
TENC1 (Homo sapiens), sequence (Q63HR2 1135-1252): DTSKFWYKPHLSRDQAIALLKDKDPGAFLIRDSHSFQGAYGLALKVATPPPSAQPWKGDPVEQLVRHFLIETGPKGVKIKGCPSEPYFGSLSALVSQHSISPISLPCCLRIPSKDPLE
PLCG2-NC (Homo sapiens), sequence (P16885 527-740): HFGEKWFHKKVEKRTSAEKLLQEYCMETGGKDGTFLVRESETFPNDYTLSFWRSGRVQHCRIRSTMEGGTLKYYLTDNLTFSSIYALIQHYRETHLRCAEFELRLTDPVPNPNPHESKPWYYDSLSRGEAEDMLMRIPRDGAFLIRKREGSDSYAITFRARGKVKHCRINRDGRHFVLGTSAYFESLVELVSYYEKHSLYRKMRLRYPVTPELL
SHB (Homo sapiens), sequence (Q15464 405-509): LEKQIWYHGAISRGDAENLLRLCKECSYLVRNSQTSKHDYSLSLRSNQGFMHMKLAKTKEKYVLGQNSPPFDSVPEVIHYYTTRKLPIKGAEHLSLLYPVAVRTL
YES1 (Homo sapiens), sequence (P07947 153-260): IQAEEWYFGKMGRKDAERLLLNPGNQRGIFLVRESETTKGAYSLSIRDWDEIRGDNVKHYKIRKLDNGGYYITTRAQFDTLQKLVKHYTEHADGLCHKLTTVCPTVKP
SHF (Homo sapiens), sequence (Q7M4L6 318-423): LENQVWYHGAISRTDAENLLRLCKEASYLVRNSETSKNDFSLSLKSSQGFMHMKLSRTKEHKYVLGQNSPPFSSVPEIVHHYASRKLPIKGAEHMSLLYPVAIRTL
ABL1 (Homo sapiens), sequence (P00519 122-222): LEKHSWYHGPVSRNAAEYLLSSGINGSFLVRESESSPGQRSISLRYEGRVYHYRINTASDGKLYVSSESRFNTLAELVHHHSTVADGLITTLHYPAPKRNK
PIK3R1-C (Homo sapiens), sequence (P27986 328-723): as the sequence (P27986 328-723) above
SHC1-PTB (Homo sapiens), sequence (P29353 483-583): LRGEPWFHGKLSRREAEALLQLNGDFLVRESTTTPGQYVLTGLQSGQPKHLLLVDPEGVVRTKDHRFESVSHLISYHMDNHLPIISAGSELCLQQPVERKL
BLK (Homo sapiens), sequence (P51451 119-225): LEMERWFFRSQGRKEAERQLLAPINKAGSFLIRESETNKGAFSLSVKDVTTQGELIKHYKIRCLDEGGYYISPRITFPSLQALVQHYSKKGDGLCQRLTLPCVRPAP
LYN (Homo sapiens), sequence (P07948 124-231): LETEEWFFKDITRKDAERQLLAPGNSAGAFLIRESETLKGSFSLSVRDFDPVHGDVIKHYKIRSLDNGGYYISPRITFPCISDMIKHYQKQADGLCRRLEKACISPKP

On to …pYEYMNRRR, for which the apparent Kd (screen) was 155 nM in the data set with ITK (Homo sapiens) [1]; 239 nM with PIK3R2-N (Homo sapiens) [2]; 499 nM with PIK3R3-NC (Homo sapiens) [3]; 1420 nM with ABL1 (Homo sapiens); 68 nM with BLK (Homo sapiens); 448 nM with PIK3R2-NC (Homo sapiens) [4]. Further, the apparent Kd (screen) in the data set with PIK3R3-N (Homo sapiens) [5] was 281 nM; with SYK-NC (Homo sapiens) [6], 894 nM; with SYK-NC (Homo sapiens) [7], 1260 nM; with GRB7 (Homo sapiens) [8], 125 nM; with ABL2 (Homo sapiens) [9], 1110 nM; with RASA1-N (Homo sapiens) [10] it was 516 nM. Further, the apparent Kd (screen) with PIK3R1-N (Homo sapiens) [11] was 347 nM; with YES1 (Homo sapiens) it was 125 nM; with LYN (Homo sapiens), 1070 nM; with PIK3R3-NC (Homo sapiens) [12] it was 256 nM; with PIK3R2-NC (Homo sapiens) [13], 257 nM; with SRC (Homo sapiens), 866 nM. In addition, the apparent Kd (screen) with PIK3R2-N (Homo sapiens) [14] was 143 nM; in the data set with TENC1 (Homo sapiens) [15], 1800 nM; with RASA1-N (Homo sapiens) [16] it was 929 nM; in the data set with PLCG2-NC (Homo sapiens), 614 nM; in the data set with PIK3R1-NC (Homo sapiens) [17], 254 nM; in the data set with PIK3R3-N (Homo sapiens) [18] it was 201 nM. Besides, the apparent Kd (screen) was 499 nM with PIK3R1-NC (Homo sapiens) [19]; 709 nM in the data set with FGR (Homo sapiens); 1630 nM with TENC1 (Homo sapiens) [20]; 674 nM with PIK3R1-N (Homo sapiens) [21]; 99 nM with GRB7 (Homo sapiens) [22].
In the case of …pYMPMNQGN, the apparent Kd (screen) was 492 nM in the data set with PIK3R3-NC (Homo sapiens) [23]; 109 nM with PIK3R3-C (Homo sapiens); 999 nM with PIK3R1-C (Homo sapiens); 1670 nM in the data set with ITK (Homo sapiens) [24]; 88 nM in the data set with PIK3R2-NC (Homo sapiens) [25]; 331 nM with ABL2 (Homo sapiens) [26]. Also, the apparent Kd (screen) was 1180 nM with SYK-C (Homo sapiens); 105 nM with PIK3R1-NC (Homo sapiens) [27]; 999 nM with PIK3R2-N (Homo sapiens) [28]; 566 nM in the data set with PIK3R1-N (Homo sapiens) [29]; 1370 nM with SHB (Homo sapiens); 920 nM in the data set with PIK3R1-NC (Homo sapiens) [30]. For the same substance, the apparent Kd (screen) with PIK3R2-N (Homo sapiens) [31] was 893 nM; in the data set with SHC1-PTB (Homo sapiens) it was 2000 nM; with PIK3R3-N (Homo sapiens) [32], 1320 nM; in the data set with PIK3R3-N (Homo sapiens) [33], 999 nM; in the data set with SHF (Homo sapiens) it was 1230 nM; in the data set with PIK3R3-NC (Homo sapiens) [34], 50 nM. Further, the apparent Kd (screen) in the data set with ABL2 (Homo sapiens) [35] was 167 nM.
